According to PMC11006747, “The E3 ubiquitin ligase ITCH negatively regulates intercellular communication via gap junctions by targeting connexin43 for lysosomal degradation” (Cellular and Molecular Life Sciences: CMLS, 2024):

Target: T1, Cx43-WT (human connexin43, transiently expressed) (human, UniProt P17302 1-382)
T1 construct: human connexin43 (Cx43; gene GJA1) from the expression plasmid pcDNA I/Neo; source: HeLa cells negative for Cx43, transfected (pcDNA I/Neo), in lysate
Experiment: co-IP; lysates of HeLa cells negative for Cx43, co-transfected 48 h with Cx43-WT or Cx43-P283A and HA-ITCH-WT, immunoprecipitated with anti-Cx43 antibodies cross-linked to protein A-Sepharose, 2 h at 4 °C; HA-ITCH detected by western blot with anti-HA and normalised to Cx43 in the immunoprecipitate; in one experiment cells treated with DMSO or bafilomycin A1 (200 nM) for the last 18 h; rabbit IgG as control
Conditions: partners not purified

T1 sequence (P17302 whole entry): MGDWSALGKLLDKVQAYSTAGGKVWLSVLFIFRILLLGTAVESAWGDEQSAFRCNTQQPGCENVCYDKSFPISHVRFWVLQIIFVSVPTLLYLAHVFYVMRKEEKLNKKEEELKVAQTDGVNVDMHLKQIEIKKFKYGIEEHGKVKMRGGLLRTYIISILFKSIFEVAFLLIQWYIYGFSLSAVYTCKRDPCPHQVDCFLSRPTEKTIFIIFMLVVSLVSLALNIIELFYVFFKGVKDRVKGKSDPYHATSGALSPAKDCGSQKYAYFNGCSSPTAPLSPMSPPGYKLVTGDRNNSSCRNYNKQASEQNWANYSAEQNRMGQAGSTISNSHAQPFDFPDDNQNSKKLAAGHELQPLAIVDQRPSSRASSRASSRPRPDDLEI

B1: HA-ITCH-wild type (enzyme)
chain: not shown
notes: E3 ubiquitin ligase ITCH, wild type, gene synthesised (GeneArt, Thermo Fisher); Isoform inferred only from the printed number of the catalytic cysteine (C830A mutant of the same cDNA); also called HA-ITCH-WT; source: HeLa cells negative for Cx43, transfected (pcDNA3.4-TOPO), in lysate
fold increase of co-immunoprecipitated HA-ITCH with bafilomycin A1 against DMSO: ~4 fold
